Experiments:
[1] = target: T1, IgFLNa20–21 (filamin A immunoglobulin-like domains 20–21, residues 2141–2329) (Homo sapiens (Human), UniProt P21333); experiment: SAXS
T1 chain: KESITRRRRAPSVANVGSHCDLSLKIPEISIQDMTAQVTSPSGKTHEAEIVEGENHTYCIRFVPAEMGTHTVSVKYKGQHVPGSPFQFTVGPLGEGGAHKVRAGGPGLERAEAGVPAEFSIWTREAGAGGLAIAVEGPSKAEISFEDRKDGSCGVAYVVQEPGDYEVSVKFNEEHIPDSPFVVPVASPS

[2] = target: T2, IgFLNaΔA20–21 (filamin A domains 20–21 lacking the first β strand of domain 20, residues 2151–2329) (Homo sapiens (Human), UniProt P21333); experiment: NMR HSQC titration, crystal structure
T2 chain: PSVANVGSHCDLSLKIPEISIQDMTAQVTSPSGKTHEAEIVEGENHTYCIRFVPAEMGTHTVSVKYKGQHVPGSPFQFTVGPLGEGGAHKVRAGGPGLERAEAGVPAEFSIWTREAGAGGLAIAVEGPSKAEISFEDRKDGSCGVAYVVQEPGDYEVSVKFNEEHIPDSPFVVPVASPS

[3] = target: T3, IgFLNa20–21 (filamin A immunoglobulin-like domains 20–21, residues 2141–2329) (UniProt P21333 2141-2329); experiment: SAXS; 277 K; 20 mM Tris pH 8.0, 100 mM NaCl, 10 mM DTT; 1–4 mg/ml IgFLNa20–21 or IgFLNa∆A20–21; two times molar excess of migfilin peptide where added; details: both partners purified
T3 construct: Cloned into a modified pGEX vector; also called FLNa mechanosensor domain pair 20–21; source: E. coli BL21, purified (Glutathione Sepharose, TEV cleavage, size-exclusion chromatography)
T3 sequence (looked up): T1 chain

[4] = target: T4, IgFLNaΔA20–21 (filamin A domains 20–21 lacking the first β strand of domain 20, residues 2151–2329) (UniProt P21333 2151-2329); experiment: as above; details: both partners purified
T4 construct: filamin A (FLNa), Ig-like domains 20–21 without the A strand of domain 20 (2141–2150), residues 2151–2329; residues 2151–2235 form domain ΔA20 and 2236–2329 domain 21; 15N (and 13C) isotope-labelled for the NMR experiments; same construct; also called IgFLNa∆A20–21; IgFLNΔAa20–21; source: E. coli BL21, purified (Glutathione Sepharose, TEV cleavage, size-exclusion chromatography)
T4 sequence (looked up): T2 chain

binding result [1]: binds
binding result [2]: binds
binding result [3]: binds
binding result [4]: binds
B1: migfilin peptide (residues 5–28) (peptide)
peptide: PEKRVASSVFITLAPPRRDVAVAE
notes: migfilin, residues 5–28; it is removed here; Only residues 6–20 are seen in the crystal structure; also called migfilin^5–28 peptide; migfilin-derived peptide; source: bought: EZBiolab (Westfield, IN)

From paper PMC4554727, “Flexible Structure of Peptide-Bound Filamin A Mechanosensor Domain Pair 20–21” (PLoS ONE, 2015)
